Results taken from paper PMC9285637 (Molecular cancer research : MCR, 2019).

T1: mCherry-LacI-PALB2^WD40 (UniProt Q86YC2 841-1186)
T1 sequence (looked up): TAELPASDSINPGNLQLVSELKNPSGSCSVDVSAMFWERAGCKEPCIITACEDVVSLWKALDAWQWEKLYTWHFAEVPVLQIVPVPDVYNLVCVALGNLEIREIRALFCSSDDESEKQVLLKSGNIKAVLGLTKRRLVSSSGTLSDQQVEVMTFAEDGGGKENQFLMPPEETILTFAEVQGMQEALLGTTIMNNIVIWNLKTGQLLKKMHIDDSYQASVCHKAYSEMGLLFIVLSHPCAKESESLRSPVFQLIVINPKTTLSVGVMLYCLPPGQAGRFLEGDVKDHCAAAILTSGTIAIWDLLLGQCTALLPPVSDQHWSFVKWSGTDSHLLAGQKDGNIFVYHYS

T2: mCherry-LacI-PALB2^FL (UniProt Q86YC2 1-1186)
T2 sequence (looked up): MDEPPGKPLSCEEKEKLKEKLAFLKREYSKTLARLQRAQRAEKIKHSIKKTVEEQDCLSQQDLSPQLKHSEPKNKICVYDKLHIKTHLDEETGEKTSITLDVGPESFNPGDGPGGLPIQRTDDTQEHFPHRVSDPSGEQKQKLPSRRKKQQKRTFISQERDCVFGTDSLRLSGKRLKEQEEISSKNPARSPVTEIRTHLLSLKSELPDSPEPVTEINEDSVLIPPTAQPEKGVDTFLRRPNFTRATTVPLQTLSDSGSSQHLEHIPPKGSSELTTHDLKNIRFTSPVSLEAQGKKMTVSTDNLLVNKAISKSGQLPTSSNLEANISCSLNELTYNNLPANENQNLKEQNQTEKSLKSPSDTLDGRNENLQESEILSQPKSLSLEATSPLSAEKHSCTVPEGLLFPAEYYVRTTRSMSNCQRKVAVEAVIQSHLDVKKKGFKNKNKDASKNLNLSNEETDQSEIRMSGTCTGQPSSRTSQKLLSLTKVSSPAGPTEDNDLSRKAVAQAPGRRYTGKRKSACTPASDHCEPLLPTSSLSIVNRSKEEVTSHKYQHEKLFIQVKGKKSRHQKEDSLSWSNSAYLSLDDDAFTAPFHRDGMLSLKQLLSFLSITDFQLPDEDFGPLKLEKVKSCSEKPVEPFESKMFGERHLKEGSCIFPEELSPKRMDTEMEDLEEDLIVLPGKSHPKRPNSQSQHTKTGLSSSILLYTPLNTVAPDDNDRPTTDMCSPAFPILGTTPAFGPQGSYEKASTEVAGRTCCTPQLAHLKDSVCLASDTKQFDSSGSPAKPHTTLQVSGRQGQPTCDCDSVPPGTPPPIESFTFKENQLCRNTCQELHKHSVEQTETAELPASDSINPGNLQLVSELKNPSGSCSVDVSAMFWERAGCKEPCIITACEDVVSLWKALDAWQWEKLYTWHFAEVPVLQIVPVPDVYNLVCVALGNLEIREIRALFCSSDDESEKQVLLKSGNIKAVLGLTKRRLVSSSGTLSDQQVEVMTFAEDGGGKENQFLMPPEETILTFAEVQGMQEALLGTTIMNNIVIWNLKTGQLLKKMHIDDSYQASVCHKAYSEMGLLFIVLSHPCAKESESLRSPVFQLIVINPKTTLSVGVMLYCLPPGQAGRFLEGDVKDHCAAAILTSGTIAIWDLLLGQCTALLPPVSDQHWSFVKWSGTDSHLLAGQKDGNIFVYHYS


Key:
mCherry-LacI-PALB2^WD40 = target: T1, mCherry-LacI-PALB2^WD40; experiment: LacO/LacI tethering recruitment assay
mCherry-LacI-PALB2^FL = target: T2, mCherry-LacI-PALB2^FL; experiment: LacO/LacI tethering recruitment assay

Row | percent of cells with recruitment of GFP-USP22 to the LacO array (mCherry-LacI-PALB2^WD40) | percent of cells with recruitment of GFP-USP22 to the LacO array (mCherry-LacI-PALB2^FL) | Binder
1 | 55% | – | GFP-USP22^DUB (domain or fragment, human, UniProt Q9UPT9 164-525, looked up) RRKITSNCTIGLRGLINLGNTCFMNCIVQALTHTPLLRDFFLSDRHRCEMQSPSSCLVCEMSSLFQEFYSGHRSPHIPYKLLHLVWTHARHLAGYEQQDAHEFLIAALDVLHRHCKGDDNGKKANNPNHCNCIIDQIFTGGLQSDVTCQVCHGVSTTIDPFWDISLDLPGSSTPFWPLSPGSEGNVVNGESHVSGTTTLTDCLRRFTRPEHLGSSAKIKCSGCHSYQESTKQLTMKKLPIVACFHLKRFEHSAKLRRKITTYVSFPLELDMTPFMASSKESRMNGQYQQPTDSLNNDNKYSLFAVVNHQGTLESGHYTSFIRQHKDQWFKCDDAIITKASIKDVLDSEGYLLFYHKQFLEYE
2 | 37.5% | 35% | GFP-USP22 (enzyme, human, UniProt Q9UPT9 1-525, looked up) MVSRPEPEGEAMDAELAVAPPGCSHLGSFKVDNWKQNLRAIYQCFVWSGTAEARKRKAKSCICHVCGVHLNRLHSCLYCVFFGCFTKKHIHEHAKAKRHNLAIDLMYGGIYCFLCQDYIYDKDMEIIAKEEQRKAWKMQGVGEKFSTWEPTKRELELLKHNPKRRKITSNCTIGLRGLINLGNTCFMNCIVQALTHTPLLRDFFLSDRHRCEMQSPSSCLVCEMSSLFQEFYSGHRSPHIPYKLLHLVWTHARHLAGYEQQDAHEFLIAALDVLHRHCKGDDNGKKANNPNHCNCIIDQIFTGGLQSDVTCQVCHGVSTTIDPFWDISLDLPGSSTPFWPLSPGSEGNVVNGESHVSGTTTLTDCLRRFTRPEHLGSSAKIKCSGCHSYQESTKQLTMKKLPIVACFHLKRFEHSAKLRRKITTYVSFPLELDMTPFMASSKESRMNGQYQQPTDSLNNDNKYSLFAVVNHQGTLESGHYTSFIRQHKDQWFKCDDAIITKASIKDVLDSEGYLLFYHKQFLEYE
